Data: PMC8750366, “Role of the Redox State of Human Peroxiredoxin-5 on Its TLR4-Activating DAMP Function” (Antioxidants, 2021)
Several values for one entry are separate records, joined by “and”; a condition that tells them apart may be missing. Equal entries are not always repeated. Each block holds one molecule with its values, some of them ahead of it.

What was measured:
[1] = biological target: TLR4-YFP stably expressed on HEK293 MD2-CD14 cells (UniProt O00206)
[2] = biological target: C47S mutant N-terminal 6xHis-tagged human peroxiredoxin-5 (human); assay: SEC-MALS; 50 µL loaded on Superdex 200 Increase 10/300 GL (and Superdex 75 Increase, data not shown), PBS running buffer pH 7.4; Zimm fit
[3] = biological target: recombinant human TLR4 (R&D Systems) (human) (UniProt O00206); assay: AFM single-molecule force spectroscopy; PRDX5 grafted on the AFM tip by a PEG24 linker, TLR4 covalently attached to an alkanethiol SAM on gold (NHS/EDC); PBS, ~25 °C; retraction speeds 100 nm/s to 10 µm/s; Bell-Evans fit
[4] = biological target: TLR4-YFP stably expressed on HEK293 MD2-CD14 cells (UniProt O00206); assay: flow cytometry on cells; living HEK293 MD2-CD14 TLR4 cells exposed to 1 µM of the PRDX5 redox forms or increasing dsPRDX5 in DMEM, 40 min on ice; detected with anti-PRDX5 serum and Alexa Fluor 647 Plus secondary antibody; MFI of untreated cells subtracted
[5] = biological target: TLR4-YFP stably expressed on HEK293 MD2-CD14 cells (UniProt O00206 24-839); assay: cell-based or functional assay
[6] = biological target: the molecule itself; assay: SEC-MALS; 50 µL loaded on Superdex 200 Increase 10/300 GL (and Superdex 75 Increase, data not shown), PBS running buffer pH 7.4; Zimm fit

Sequence of recombinant human TLR4 (R&D Systems) (human) (O00206 24-631): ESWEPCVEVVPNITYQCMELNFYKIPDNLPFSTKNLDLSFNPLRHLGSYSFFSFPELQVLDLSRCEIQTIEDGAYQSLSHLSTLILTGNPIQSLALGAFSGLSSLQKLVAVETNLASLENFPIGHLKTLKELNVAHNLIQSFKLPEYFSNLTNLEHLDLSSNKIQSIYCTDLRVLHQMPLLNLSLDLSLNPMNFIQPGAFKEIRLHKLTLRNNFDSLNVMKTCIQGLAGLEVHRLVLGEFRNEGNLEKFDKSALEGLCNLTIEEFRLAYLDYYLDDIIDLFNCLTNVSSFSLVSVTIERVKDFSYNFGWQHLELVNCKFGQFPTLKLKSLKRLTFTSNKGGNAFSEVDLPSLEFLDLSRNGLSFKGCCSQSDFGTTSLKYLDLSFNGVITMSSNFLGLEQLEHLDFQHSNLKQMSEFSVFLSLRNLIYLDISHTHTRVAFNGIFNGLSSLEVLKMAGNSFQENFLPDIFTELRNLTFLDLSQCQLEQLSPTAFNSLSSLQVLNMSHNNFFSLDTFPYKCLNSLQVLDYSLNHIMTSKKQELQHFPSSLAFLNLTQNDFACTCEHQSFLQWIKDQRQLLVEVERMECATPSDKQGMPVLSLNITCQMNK
Sequence of TLR4-YFP stably expressed on HEK293 MD2-CD14 cells (UniProt O00206 24-839) (O00206 24-839): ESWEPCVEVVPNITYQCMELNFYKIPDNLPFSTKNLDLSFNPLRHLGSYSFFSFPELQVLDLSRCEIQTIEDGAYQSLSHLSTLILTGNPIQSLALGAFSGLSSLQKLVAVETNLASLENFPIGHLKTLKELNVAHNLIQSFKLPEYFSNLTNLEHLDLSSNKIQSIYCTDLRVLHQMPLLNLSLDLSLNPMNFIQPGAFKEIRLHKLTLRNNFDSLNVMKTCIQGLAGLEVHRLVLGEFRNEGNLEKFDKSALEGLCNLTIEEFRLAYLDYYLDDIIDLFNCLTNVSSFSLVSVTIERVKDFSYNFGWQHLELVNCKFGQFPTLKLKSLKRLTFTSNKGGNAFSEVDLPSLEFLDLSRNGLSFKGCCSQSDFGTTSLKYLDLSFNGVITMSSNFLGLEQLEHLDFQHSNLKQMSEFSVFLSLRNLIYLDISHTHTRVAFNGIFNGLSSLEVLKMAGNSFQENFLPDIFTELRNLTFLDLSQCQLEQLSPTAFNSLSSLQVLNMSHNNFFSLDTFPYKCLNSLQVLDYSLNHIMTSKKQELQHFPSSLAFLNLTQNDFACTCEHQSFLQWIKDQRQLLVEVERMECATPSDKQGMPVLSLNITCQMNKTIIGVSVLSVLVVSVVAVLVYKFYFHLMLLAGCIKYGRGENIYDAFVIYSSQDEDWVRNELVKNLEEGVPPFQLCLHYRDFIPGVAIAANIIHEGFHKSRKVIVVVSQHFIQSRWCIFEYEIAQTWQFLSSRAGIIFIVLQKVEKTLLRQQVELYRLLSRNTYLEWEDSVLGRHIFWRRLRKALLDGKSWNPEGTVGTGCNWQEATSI
Sequence of TLR4-YFP stably expressed on HEK293 MD2-CD14 cells (UniProt O00206) (O00206 24-839): as above

- IL-8 secretion from HEK293 MD2-CD14 TLR4 cells, 2 µM protein, 16 h, ELISA [1]: 893 pg/mL
- stoichiometry N [2]: 2 and 4
- koff [3]: 1.97 s⁻¹
- fold decrease in binding propensity compared to dsPRDX5 [4]: 3 fold
Molecule: C47S mutant N-terminal 6xHis-tagged human peroxiredoxin-5 (enzyme)

- koff [3]: 1.02 s⁻¹
Molecule: recombinant wild-type N-terminal 6xHis-tagged human peroxiredoxin-5, disulfide (oxidized) form (from UniProt P30044 54-214)

- IL-8 secretion from HEK293 MD2-CD14 TLR4 cells, 2 µM protein, 16 h, ELISA [5]: 2440 pg/mL
- koff [3]: 2.47 s⁻¹
B1: chemically reduced and alkylated recombinant human peroxiredoxin-5 (enzyme)
chain: APIKVGDAIPAVEVFEGEPGNKVNLAELFKGKKGVLFGVPGAFTPGCSKTHLPGFVEQAEALKAKGVQVVACLSVNDAFVTGEWGRAHKAEGKVRLLADPTGAFGKETDLLLDDSLVSIFGNRRLKRFSMVVQDGIVKALNVEPDGTGLTCSLAPNIISQL
modifications: cysteine thiols alkylated with iodoacetamide (carbamidomethyl groups), more likely on the two Cys involved in the disulfide bond (C47, C151)
notes: human peroxiredoxin-5 (PRDX5), wild type, same construct as m1; Made from m1 by chemical treatment; Mainly a dimer by SEC-MALS; also called r/aPRDX5; reduced PRDX5; source: dsPRDX5 (E. coli M15, purified) treated with 10 mM DTT, then 55 mM iodoacetamide, ultra-filtered; not shown: His6, N-terminal, kept
- stoichiometry N [6]: 2

- IL-8 secretion from HEK293 MD2-CD14 TLR4 cells, 2 µM protein, 16 h, ELISA [5]: 1450 pg/mL
B2: hyperoxidized recombinant human peroxiredoxin-5 (enzyme)
chain: B1 chain
modifications: Cys sulfinic (-SO2H) and/or sulfonic (-SO3H) acids; only partially hyperoxidized (~42% of species), a proportion of species keeps the disulfide bridge
notes: human peroxiredoxin-5 (PRDX5), wild type, same construct as m1; Made from m1 by chemical treatment; a mix of species; Mainly a dimer by SEC-MALS; also called s/sPRDX5; hyperoxidized PRDX5; source: dsPRDX5 (E. coli M15, purified) treated with 10 mM DTT, then 5 mM H2O2, ultra-filtered; not shown: His6, N-terminal, kept
- stoichiometry N [6]: 2 and 4

- IL-8 secretion from HEK293 MD2-CD14 TLR4 cells, 2 µM protein, 16 h, ELISA [5]: 4610 pg/mL
B3: recombinant wild-type N-terminal 6xHis-tagged human peroxiredoxin-5, disulfide (oxidized) form (enzyme)
chain: B1 chain
modifications: disulfide bridge between C47 and C151
notes: human peroxiredoxin-5 (PRDX5), wild type; calculated mass with reduced thiols 18,297.81 Da; Mainly a dimer by SEC-MALS, with ~30% monomers; also called dsPRDX5; PRDX5; source: E. coli M15 (pRep4), pQE-30, purified (Ni-NTA), dialyzed against PBS; not shown: His6, N-terminal, kept
- stoichiometry N [6]: 2
